Reference: the supplement of paper PMC7877785
± gives the uncertainty stated by the source.

Assay: self-splicing fitness, log relative to wild type (ln ratio); higher = more splicing; Tetrahymena group I intron in knt gene, E. coli kanamycin selection, DiMSum; sequences stand for … in CUCUCU…GGAGGGAAAAGUUAUCAGGCAUGCACCUGGUAGCUAGUCUUUAAACCAAUAGAUUGCAUCGGUUUAAAAGGCAAGACCGUCAAAUUGCGGGAAAGGGGUCAACAGCCGUUCAGUACCAAGUCUCAGGGGAAACUUUGAGAUGGCCUUGCAAAGGGUAUGGUAAUAAGCUGACGGACAUGGUCCUAACCACGCAGCCAAGUCCUAAGUCAACAGAUCUUCUGUUGAUAUGGAUGCAGUUCACAGACUAAAUGUCGGUCGGGGAAGAUGUAUUCUUCUCAUAAGAUAUAGUCGGACCUCUCCUUAAUGGGAGCUAGCGGAUGAAGUGAUGCAACACUGGAGCCGCUGGGAACUAAUUUGUAUGCGAAAGUAUAUUGAUUAGUUUUGGAGUACUCGUGGUCG
Outline: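 Six replicate transformations of E. coli BL21(DE3) with a pET-22b(+) library were grown overnight at 37°C or 30°C. The library randomised all eight P1ex-region intron nucleotides, the intron lying in the knt kanamycin-resistance gene, and plates were LB agar with or without 25 μg/mL kanamycin plus 100 μg/mL carbenicillin, 50 μM IPTG and 0.2% rhamnose. Pooled colonies were amplicon-sequenced on an Illumina HiSeq 2500, and fitness is the DiMSum error-weighted combination of wild-type-normalised replicate fold changes, kanamycin versus none.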

Row | Sequence | self-splicing fitness (ln) (30 °C) | self-splicing fitness (ln) (37 °C)
1 | AUGUAGCAAUAUUACGGUGG | -3.1 ± 0.27 | -2.77 ± 0.24
2 | UUGGAGCAAUAUUACGCUUA | -2.03 ± 0.16 | -2.35 ± 0.23
3 | GACGAGCAAUAUUACGGUAU | -3.43 ± 0.19 | -2.08 ± 0.26
4 | CAGUAGCAAUAUUACGCACC | -2.03 ± 0.26 | -1.61 ± 0.43
5 | UGCUAGCAAUAUUACGAUUA | -0.493 ± 0.095 | -0.286 ± 0.096
6 | UAUUAGCAAUAUUACGCCGG | -0.99 ± 0.22 | -0.907 ± 0.26
7 | ACAUAGCAAUAUUACGUAAA | -1.66 ± 0.12 | -1.75 ± 0.21
8 | CUGCAGCAAUAUUACGGCGA | -0.954 ± 0.14 | -0.847 ± 0.13
9 | GCAAAGCAAUAUUACGGCUU | -1.48 ± 0.11 | -0.763 ± 0.15
10 | CCUAAGCAAUAUUACGACCG | -1.24 ± 0.14 | -0.121 ± 0.13
11 | CAUCAGCAAUAUUACGAUAG | -0.277 ± 0.1 | -0.0749 ± 0.14
12 | AAAUAGCAAUAUUACGGUAU | -1.69 ± 0.1 | -0.496 ± 0.12
13 | AUCAAGCAAUAUUACGUUUA | -1.73 ± 0.1 | -1.31 ± 0.093
14 | UAGCAGCAAUAUUACGUAGU | -2.15 ± 0.14 | -2.48 ± 0.31
15 | CUUUAGCAAUAUUACGGAUU | – | -1.57 ± 0.41
16 | AUACAGCAAUAUUACGAAAA | -2.58 ± 0.26 | -1.4 ± 0.18
17 | GUAAAGCAAUAUUACGUCAG | -3.53 ± 0.32 | -1.83 ± 0.19
18 | GACAAGCAAUAUUACGGAUU | -2.16 ± 0.076 | -0.656 ± 0.076
19 | UUAUAGCAAUAUUACGAACA | -1.51 ± 0.19 | -0.83 ± 0.17
20 | CUAAAGCAAUAUUACGGGAG | -0.542 ± 0.056 | 0.188 ± 0.077
21 | UAGGAGCAAUAUUACGGCGC | -1.76 ± 0.36 | -2.54 ± 0.41
22 | UUCUAGCAAUAUUACGAUCC | – | -2.65 ± 0.38
23 | ACGUAGCAAUAUUACGGAUA | -2.48 ± 0.15 | -0.584 ± 0.11
24 | AAAGAGCAAUAUUACGUCGA | -3.5 ± 0.27 | -2.09 ± 0.18
25 | GGAAAGCAAUAUUACGCUUC | -2.84 ± 0.3 | –

Row | Sequence | self-splicing fitness (ln) (30 °C) | self-splicing fitness (ln) (37 °C)
26 | ACGAAGCAAUAUUACGGUGA | -2.33 ± 0.088 | -1.48 ± 0.085
27 | GUGCAGCAAUAUUACGCACU | -3.41 ± 0.28 | -2.3 ± 0.37
28 | GCUAAGCAAUAUUACGUUAC | -3.73 ± 0.26 | -1.01 ± 0.16
29 | UCAGAGCAAUAUUACGAACU | -2.02 ± 0.33 | –
30 | GUCGAGCAAUAUUACGCACU | -1.47 ± 0.14 | -0.953 ± 0.18
31 | ACUGAGCAAUAUUACGACCU | -1.57 ± 0.11 | -0.583 ± 0.13
32 | ACAAAGCAAUAUUACGGAGG | -2.23 ± 0.078 | -2.17 ± 0.11
33 | GCAGAGCAAUAUUACGACUA | -2.45 ± 0.27 | -2.12 ± 0.24
34 | ACGUAGCAAUAUUACGAGUU | -4.04 ± 0.17 | -1.3 ± 0.13
35 | CGCGAGCAAUAUUACGCAGG | -2.68 ± 0.13 | -1.88 ± 0.15
36 | CAAAAGCAAUAUUACGACAA | -1.85 ± 0.13 | -1.64 ± 0.15
37 | UCCGAGCAAUAUUACGUGCA | -1.45 ± 0.15 | -1.47 ± 0.12
38 | UUGCAGCAAUAUUACGCAGG | -3.72 ± 0.25 | -2.68 ± 0.25
39 | GCUCAGCAAUAUUACGGCAU | -2.29 ± 0.2 | -1.72 ± 0.15
40 | AGAAAGCAAUAUUACGGCUG | -0.141 ± 0.11 | -0.414 ± 0.16
41 | UUUCAGCAAUAUUACGAGCU | – | -1.95 ± 0.5
42 | UCGCAGCAAUAUUACGUGGU | -3.38 ± 0.13 | -3.24 ± 0.19
43 | CGCGAGCAAUAUUACGCUGG | -1.39 ± 0.18 | -1.31 ± 0.28
44 | CUACAGCAAUAUUACGGAAG | -1.46 ± 0.085 | -0.751 ± 0.11
45 | CCACAGCAAUAUUACGGCGC | -3.56 ± 0.16 | -2.17 ± 0.13
46 | GAUCAGCAAUAUUACGACUG | -1.21 ± 0.082 | -0.166 ± 0.13
47 | GCGUAGCAAUAUUACGCUAG | -2.9 ± 0.2 | -2.54 ± 0.29
48 | UACGAGCAAUAUUACGUCCU | -2.87 ± 0.22 | -1.38 ± 0.19
49 | GGUAAGCAAUAUUACGCGCG | -0.623 ± 0.1 | 0.012 ± 0.14
